Measured values taken from the supplement of paper PMC6379048.

Experiments:
[1] = target: ATIC (UniProt P31939); assay: Kd (EC50 corrected by depletion factor)
Procedure, shortened: (§1)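 Free RNA oligos (0 nM to 30 μM) were pre-incubated with HEK293-FT lysate (2.5 mg protein/well) for 1 h at 4°C, followed by 30 min at 4°C with the same 5′-amino-C6 oligos coupled to NHS-Sepharose beads. Bound proteins were quantified by label-free LC-MS/MS and normalised to the control. EC50 was derived from a four-parameter log-logistic fit, and Kd was obtained by multiplying EC50 by a protein-dependent depletion factor.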

[2] = target: MRPS23 (UniProt Q9Y3D9); assay: Kd (EC50 corrected by depletion factor)
Procedure, shortened: as §1

[3] = target: MRPS7 (UniProt Q9Y2R9); assay: Kd (EC50 corrected by depletion factor)
Procedure, shortened: as §1

[4] = target: T1, PRPF4 (UniProt O43172); assay: Kd (EC50 corrected by depletion factor)
T1 sequence: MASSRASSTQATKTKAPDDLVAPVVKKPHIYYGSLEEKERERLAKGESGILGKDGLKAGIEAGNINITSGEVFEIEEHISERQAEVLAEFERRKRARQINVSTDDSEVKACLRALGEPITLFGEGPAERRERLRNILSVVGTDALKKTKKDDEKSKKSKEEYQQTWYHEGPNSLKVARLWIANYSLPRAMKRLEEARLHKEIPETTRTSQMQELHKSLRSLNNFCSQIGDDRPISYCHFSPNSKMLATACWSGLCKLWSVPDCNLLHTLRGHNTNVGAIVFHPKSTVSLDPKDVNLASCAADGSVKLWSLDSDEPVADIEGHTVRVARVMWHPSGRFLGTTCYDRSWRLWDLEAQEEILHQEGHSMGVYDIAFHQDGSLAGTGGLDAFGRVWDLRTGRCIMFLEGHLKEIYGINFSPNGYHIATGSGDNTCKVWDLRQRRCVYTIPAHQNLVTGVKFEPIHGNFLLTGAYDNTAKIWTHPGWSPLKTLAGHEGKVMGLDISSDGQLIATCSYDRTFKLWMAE
Procedure, shortened: as §1

[5] = target: T2, ZFP36L2 (UniProt P47974); assay: EC50 of free RNA motif oligo competing protein binding to immobilised probe
T2 sequence: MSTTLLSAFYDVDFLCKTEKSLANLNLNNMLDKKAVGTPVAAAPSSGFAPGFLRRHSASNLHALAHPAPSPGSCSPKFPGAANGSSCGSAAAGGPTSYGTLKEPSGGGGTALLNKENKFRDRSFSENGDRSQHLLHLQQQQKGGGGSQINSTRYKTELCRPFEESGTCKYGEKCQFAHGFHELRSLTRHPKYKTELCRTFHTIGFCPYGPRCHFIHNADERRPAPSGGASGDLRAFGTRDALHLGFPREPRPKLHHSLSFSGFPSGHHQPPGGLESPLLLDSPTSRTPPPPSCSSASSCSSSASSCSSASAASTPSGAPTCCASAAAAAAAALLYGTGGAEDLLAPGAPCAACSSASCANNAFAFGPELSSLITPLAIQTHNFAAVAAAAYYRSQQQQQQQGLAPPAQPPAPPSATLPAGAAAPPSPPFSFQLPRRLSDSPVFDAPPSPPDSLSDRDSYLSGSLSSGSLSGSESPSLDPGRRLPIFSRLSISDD
Procedure, shortened: as §1

[6] = target: CSNK2B (UniProt P67870); assay: Kd (EC50 corrected by depletion factor)
CSNK2B, sequence (P67870 whole entry): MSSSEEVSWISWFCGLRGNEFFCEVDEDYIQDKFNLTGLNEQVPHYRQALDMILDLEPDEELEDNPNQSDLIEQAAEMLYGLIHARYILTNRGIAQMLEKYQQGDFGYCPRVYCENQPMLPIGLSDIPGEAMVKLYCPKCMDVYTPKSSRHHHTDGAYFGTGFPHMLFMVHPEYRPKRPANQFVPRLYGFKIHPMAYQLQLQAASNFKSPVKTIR
Procedure, shortened: as §1

[7] = target: MRPL11 (UniProt Q9Y3B7); assay: Kd (EC50 corrected by depletion factor)
Procedure, shortened: as §1

[8] = target: MRPL39 (UniProt Q9NYK5); assay: Kd (EC50 corrected by depletion factor)
Procedure, shortened: as §1

[9] = target: RPS13 (UniProt P62277); assay: Kd (EC50 corrected by depletion factor)
Procedure, shortened: as §1

[10] = target: RPS25 (UniProt P62851); assay: Kd (EC50 corrected by depletion factor)
Procedure, shortened: as §1

[11] = target: RPS5 (UniProt P46782); assay: Kd (EC50 corrected by depletion factor)
Procedure, shortened: as §1

[12] = target: T3, SRSF4 (UniProt Q08170); assay: Kd (EC50 corrected by depletion factor)
T3 sequence: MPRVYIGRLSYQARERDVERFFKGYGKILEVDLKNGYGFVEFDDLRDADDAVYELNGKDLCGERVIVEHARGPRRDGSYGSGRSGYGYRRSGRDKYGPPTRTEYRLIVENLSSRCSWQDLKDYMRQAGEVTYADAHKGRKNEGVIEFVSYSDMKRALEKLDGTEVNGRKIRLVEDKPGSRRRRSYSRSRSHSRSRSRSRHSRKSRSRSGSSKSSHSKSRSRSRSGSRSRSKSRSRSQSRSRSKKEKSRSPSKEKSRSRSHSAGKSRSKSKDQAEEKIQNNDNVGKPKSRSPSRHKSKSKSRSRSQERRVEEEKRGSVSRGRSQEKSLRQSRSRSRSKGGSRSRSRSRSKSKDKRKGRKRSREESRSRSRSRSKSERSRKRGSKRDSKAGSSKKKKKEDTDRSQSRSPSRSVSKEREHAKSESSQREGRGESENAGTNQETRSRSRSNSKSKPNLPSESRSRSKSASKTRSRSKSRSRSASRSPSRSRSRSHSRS
Procedure, shortened: as §1

ATIC, sequence (P31939 whole entry, looked up): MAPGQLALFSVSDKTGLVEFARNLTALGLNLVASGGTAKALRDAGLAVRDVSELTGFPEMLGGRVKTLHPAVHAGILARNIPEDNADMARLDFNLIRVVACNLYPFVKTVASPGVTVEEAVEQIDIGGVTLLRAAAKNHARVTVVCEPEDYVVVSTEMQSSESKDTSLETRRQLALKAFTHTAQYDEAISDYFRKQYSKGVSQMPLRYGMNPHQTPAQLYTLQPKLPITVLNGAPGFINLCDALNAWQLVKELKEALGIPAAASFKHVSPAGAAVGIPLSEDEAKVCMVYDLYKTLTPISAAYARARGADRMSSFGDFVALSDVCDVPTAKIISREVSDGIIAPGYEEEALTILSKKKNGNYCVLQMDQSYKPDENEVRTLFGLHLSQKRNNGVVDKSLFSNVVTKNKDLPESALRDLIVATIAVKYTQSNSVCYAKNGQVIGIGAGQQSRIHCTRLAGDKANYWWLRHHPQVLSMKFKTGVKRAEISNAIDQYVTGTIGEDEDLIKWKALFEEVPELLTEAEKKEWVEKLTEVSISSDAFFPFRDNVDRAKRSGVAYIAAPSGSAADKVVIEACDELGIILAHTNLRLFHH

Sequence	Kd [1] [nM]	Kd [2] [nM]	Kd [3] [nM]	Kd [4] [nM]	EC50 [5] [nM]	Kd [6] [nM]	Kd [7] [nM]	Kd [8] [nM]	Kd [9] [nM]	Kd [10] [nM]	Kd [11] [nM]	Kd [12] [nM]
UAUUUAU	523	15.6	29.4	2640	61.8							
AAUAAA					1830	2220						
CUGUCCU							53.7	101	39.9	25.2	146	312
